{
  "source": "patent US20250188194A1",
  "about": "“Method of treatment” (Nucleus Therapeutics Pty Ltd, priority 2021, published 2025)",
  "key": {"[1]": {"test_system": "differentiated PLB-985 cells", "assay": "Quantifying DNA released (adherent NET-DNA) after PMA stimulation by spectrophotometry", "type": "cell-based, human", "conditions": "10 μM DX1 one hour, 300 nM PMA four hours; PMA control 4.50±0.14; N=3", "procedure": "The results of the DAPI and SYTOX™ Green staining studies in FIG. 2C, 2D are consistent with DX1-mediated inhibition of chromatin decondensation and DNA release by differentiated PLB-985 cells. To further probe this effect, DNA-protein release was measured by differentiated PLB-985 cells after PMA stimulation by resuspending and quantifying DNA-protein complexes adherent to wells by spectrophotometry using a previously described protocol for isolation and quantification of NET-DNA in cell culture. This assay is based on the concept that intact cells for the most part remain in suspension, while DNA-protein complexes released in NETs are at least partially adhered to wells. This distinction allows for separation of intact cells from adherent NET-DNA by aspiration of the cell culture supernatants, followed by resuspension of adherent DNA-protein complexes and quantification by spectrophotometry.\nNext, the ability of this assay to detect the effect of a known NETosis inhibitor on DNA release by differentiated PLB-985 cells stimulated by PMA was verified. […] Differentiated PLB-985 cells were treated with 0-50 μM of GSK484 for one hour prior to stimulation with PMA, followed by quantification of adherent DNA by spectrophotometry. […]"}, "[2]": {"test_system": "mouse neutrophils", "assay": "Mouse neutrophils NETosis visualization (MPO, H3Cit, PAD4 immunostaining)", "type": "cell-based", "conditions": "10 μM DX1 30 minutes, N=4", "procedure": "(§1) Neutrophils obtained from thioglycollate-treated mice and directly plated onto 20-well plates were treated with control media or media containing 10 μM DX1 for 30 minutes, and then observed for four hours, after which cells were fixed and immunostained for markers of NETs including myeloperoxidase (MPO), H3Cit, and peptidylarginine deiminase 4 (PAD4). The percentage of NETs released per 100 cells was determined by visualization on confocal microscopy and analyzed by ImageJ (NIH).\nas §1, with “stimulated with PMA for induction of NOX-dependent NETosis” for “observed”, “MPO,” for “myeloperoxidase (MPO),”, “PAD4.” for “peptidylarginine deiminase 4 (PAD4).”, “confocal fluorescence” for “confocal”, “(NIH). […]” for “(NIH).”\nas §1, with “stimulated with a calcium ionophore (ionomycin, IM) for induction of NOX-independent NETosis” for “observed”, “MPO,” for “myeloperoxidase (MPO),”, “PAD4.” for “peptidylarginine deiminase 4 (PAD4).”, “confocal fluorescence” for “confocal”\nAll mouse work was conducted under a protocol approved by Monash University's Animal Ethics Committee. […] Cells were fixed in periodate-lysine-paraformaldehyde (PLP) overnight, immunostained for markers of NETs including myeloperoxidase (MPO, #AF3667 R&D Systems, MN, USA), H3Cit, and PAD4 (#AB128086, abcam), mounted in DAPI ProLong™ Gold (Molecular Probes, Thermo Fisher Scientific) and NETs were visualized by confocal fluorescence microscopy with a Nikon Ti-E inverted microscope (Nikon Instruments Inc, Melville, NY, USA). […]"}},
  "data": [
    {"molecule": "DX1: 3E10 derivative, a di-scFv having the sequence SEQ ID NO: 38; nuclear-penetrating anti-DNA binding protein (protein, DX1 sequence) scFv: DIQMTQSPSSLSASLGDRATITCRASKTVSTSSYSYMHWYQQKPGQPPKLLIKYASYLESGVPSRFSGSGSGTDFTLTISSLQPEDAATYYCQHSREFPWTFGGGTKVEIKTVDAAPGGGGSGGGGSGGGGSEVQLVESGGGLVQPGGSLRLSCAASGFTFSNYGMHWVRQAPGKGLEWVSYISSGSSTIYYADSVKGRFTISRDNAKNSLYLQMNSLRAEDTAVYYCARRGLLLDYWGQGTTVTVSSASTKGPSVFPLAPLESTGSDIQMTQSPSSLSASLGDRATITCRASKTVSTSSYSYMHWYQQKPGQPPKLLIKYASYLESGVPSRFSGSGSGTDFTLTISSLQPEDAATYYCQHSREFPWTFGGGTKVEIKTVDAAPGGGGSGGGGSGGGGSEVQLVESGGGLVQPGGSLRLSCAASGFTFSNYGMHWVRQAPGKGLEWVSYISSGSSTIYYADSVKGRFTISRDNAKNSLYLQMNSLRAEDTAVYYCARRGLLLDYWGQGTTVTVSS", "values": [
      {"measurement": "released/adherent DNA content relative to unstimulated control cells", "setting": "[1]", "value": "1.80±0.11"},
      {"measurement": "percentage of NETs, unstimulated neutrophils", "setting": "[2]; no stimulus, four hours, control 3.5%±1.0", "value": "4.0%±1.5"},
      {"measurement": "percentage of NETs, ionomycin (IM) stimulation (NOX-independent NETosis)", "setting": "[2]; then IM 4 μM four hours, control 15.5%±3.1", "value": "2.3%±0.8"},
      {"measurement": "percentage of NETs, PMA stimulation (NOX-dependent NETosis)", "setting": "[2]; then PMA four hours, control 36.3%±11.1", "value": "8.3%±2.7"}
    ]}
  ]
}
